Reference: US12679878B2, “CRF2 receptor agonists and their use in therapy” (SANOFI, priority 2020, dated 2026)
Starred links: 1 amine or outer side, 2 acyl side, 3 side chain; linkers in the order of their positions; H or OH if unused. Groups on a side chain read outwards from the residue. No end group written: not given here. *: point of attachment. C20 diacid = O=C(O)CCCCCCCCCCCCCCCCCCC(=O)*; C18 diacid = O=C(O)CCCCCCCCCCCCCCCCC(=O)*; γGlu = O=C(O)[C@H](CCC(=O)[*:2])N[*:1]; AEEA = NCCOCCOCC(=O)O

Columns and labels:
[1] = biological target: T1, endogenous human CRF2 (NCI-H82 cells) (human, UniProt Q13324 20-411); assay: cell-based or functional assay
T1 sequence (looked up): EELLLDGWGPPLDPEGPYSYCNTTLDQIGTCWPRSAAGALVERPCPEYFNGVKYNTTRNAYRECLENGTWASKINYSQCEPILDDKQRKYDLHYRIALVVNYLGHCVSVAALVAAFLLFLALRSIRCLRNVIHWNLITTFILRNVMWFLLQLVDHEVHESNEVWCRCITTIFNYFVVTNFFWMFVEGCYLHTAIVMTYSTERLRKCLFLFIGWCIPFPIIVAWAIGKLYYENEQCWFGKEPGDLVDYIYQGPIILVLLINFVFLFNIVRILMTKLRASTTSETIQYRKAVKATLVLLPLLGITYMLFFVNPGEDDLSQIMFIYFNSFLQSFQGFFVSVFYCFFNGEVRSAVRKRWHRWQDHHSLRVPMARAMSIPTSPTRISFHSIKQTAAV

[2] = biological target: T2, anti-target CRF1R receptor (UniProt P34998 24-415, limits assumed); assay: cell-based or functional assay
T2 sequence (looked up): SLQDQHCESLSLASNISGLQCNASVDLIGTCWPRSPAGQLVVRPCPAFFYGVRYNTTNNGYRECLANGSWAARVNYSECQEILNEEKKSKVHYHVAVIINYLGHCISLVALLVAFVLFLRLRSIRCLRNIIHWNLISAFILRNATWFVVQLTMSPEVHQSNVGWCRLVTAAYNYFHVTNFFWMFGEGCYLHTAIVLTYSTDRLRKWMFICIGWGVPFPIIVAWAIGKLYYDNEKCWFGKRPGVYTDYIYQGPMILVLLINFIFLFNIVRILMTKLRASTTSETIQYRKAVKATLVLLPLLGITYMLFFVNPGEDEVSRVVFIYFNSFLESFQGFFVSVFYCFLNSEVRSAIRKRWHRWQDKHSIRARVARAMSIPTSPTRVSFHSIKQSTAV

[3] = biological target: T3, recombinant human CRF2 (HEK cell membranes) (human, UniProt Q13324 1-411); assay: Hill coefficient of the competition curve against [125]sauvagine, HEK membranes with recombinant human CRF2
T3 construct: Whole receptor in membranes prepared from HEK cells; also called CRF2a (h); CRF2 receptor
T3 sequence (looked up): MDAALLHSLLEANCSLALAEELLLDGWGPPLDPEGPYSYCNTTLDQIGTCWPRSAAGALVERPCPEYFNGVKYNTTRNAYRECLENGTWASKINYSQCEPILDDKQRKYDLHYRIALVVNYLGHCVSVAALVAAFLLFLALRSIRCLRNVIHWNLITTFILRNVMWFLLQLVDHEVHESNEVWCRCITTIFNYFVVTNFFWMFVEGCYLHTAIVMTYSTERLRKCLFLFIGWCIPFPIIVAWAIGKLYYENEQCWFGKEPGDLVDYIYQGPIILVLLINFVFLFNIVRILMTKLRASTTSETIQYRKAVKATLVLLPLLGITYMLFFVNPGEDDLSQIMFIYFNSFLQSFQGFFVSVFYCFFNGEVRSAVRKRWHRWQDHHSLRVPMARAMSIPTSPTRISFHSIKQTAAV
Protocol: (§1) HEK cells expressing recombinant human CRF2 were used as a source of receptor for membrane preparation.
(§2) IC50 values (concentration causing a half-maximal inhibition of control specific binding) and Hill coefficients (nH) were determined by non-linear regression analysis of the competition curves generated with mean replicate values using Hill equation curve fitting. The inhibition constants (Ki) were calculated using the Cheng Prusoff equation [Ki=IC50/(1+L/KD) where L is the concentration of radioligand in the assay, and KD is the affinity of the radioligand for the receptor). A Scatchard plot was used to determine the KD.

rat CRF2R α receptor = rat CRF2R α receptor (rat, UniProt P47866 20-411); assay: cell-based or functional assay
[4] = biological target: T3, recombinant human CRF2 (HEK cell …); assay: radioligand competition against [125]sauvagine (0.1 nM), HEK membranes with recombinant human CRF2; Cheng Prusoff
Protocol: as §1, §2

FTLSLDVPTKIK([AEEA-AEEA-γGlu-C20 diacid])QILLKQQKQKKERQQAEKNKQLLEQI-NH2 [peptide of SEQ ID NO: 59]
EC50 [nM] (cAMP, NCI-H82 cells) [1]: 6.8 nM
EC50[nM] 0% HSA (cAMP, CRF1R-overexpression CHO cells) [2]: > 1000 nM
Emax (%) (cAMP, CRF1R-overexpression CHO cells) [2]: 11.1%
nH [3]: 0.6
EC50 [nM], 0% HSA (cAMP, A7R5 cells) (rat CRF2R α receptor): 0.34 nM
Ki [4]: 7.2 nM

B1: peptide of SEQ ID NO: 35 (peptide)
peptide: IVLSLDVPIKLK([AEEA-AEEA-γGlu-C18 diacid])KILLEQEKQKKQREQAETNKQILAQV-NH2
modifications: N-terminus assumed
SMILES: CC[C@H](C)[C@H](N)C(=O)N[C@H](C(=O)N[C@@H](CC(C)C)C(=O)N[C@@H](CO)C(=O)N[C@@H](CC(C)C)C(=O)N[C@@H](CC(=O)O)C(=O)N[C@H](C(=O)N1CCC[C@H]1C(=O)N[C@H](C(=O)N[C@@H](CCCCN)C(=O)N[C@@H](CC(C)C)C(=O)N[C@@H](CCCCNC(=O)COCCOCCNC(=O)COCCOCCNC(=O)CC[C@H](NC(=O)CCCCCCCCCCCCCCCCC(=O)O)C(=O)O)C(=O)N[C@@H](CCCCN)C(=O)N[C@H](C(=O)N[C@@H](CC(C)C)C(=O)N[C@@H](CC(C)C)C(=O)N[C@@H](CCC(=O)O)C(=O)N[C@@H](CCC(N)=O)C(=O)N[C@@H](CCC(=O)O)C(=O)N[C@@H](CCCCN)C(=O)N[C@@H](CCC(N)=O)C(=O)N[C@@H](CCCCN)C(=O)N[C@@H](CCCCN)C(=O)N[C@@H](CCC(N)=O)C(=O)N[C@@H](CCCNC(=N)N)C(=O)N[C@@H](CCC(=O)O)C(=O)N[C@@H](CCC(N)=O)C(=O)N[C@@H](C)C(=O)N[C@@H](CCC(=O)O)C(=O)N[C@H](C(=O)N[C@@H](CC(N)=O)C(=O)N[C@@H](CCCCN)C(=O)N[C@@H](CCC(N)=O)C(=O)N[C@H](C(=O)N[C@@H](CC(C)C)C(=O)N[C@@H](C)C(=O)N[C@@H](CCC(N)=O)C(=O)N[C@H](C(N)=O)C(C)C)[C@@H](C)CC)[C@@H](C)O)[C@@H](C)CC)[C@@H](C)CC)C(C)C)C(C)C
EC50 [nM] (cAMP, NCI-H82 cells) [1]: 23 nM
EC50[nM] 0% HSA (cAMP, CRF1R-overexpression CHO cells) [2]: > 1000 nM
Emax (%) (cAMP, CRF1R-overexpression CHO cells) [2]: 1.77%
nH [3]: 1.7
EC50 [nM], 0% HSA (cAMP, A7R5 cells) (rat CRF2R α receptor): 0.81 nM
Ki [4]: 7.9 nM
